Publication PMC11511902
Where two headings read alike, the source gives them in different places.

Tests used:
Experiment in all cases: SPR
His6-gp1 [1] = molecular target: T1, His6-gp1 (Bacillus thuringiensis phage GIL01 …, UniProt Q7WSG8 1-58)
T1 sequence: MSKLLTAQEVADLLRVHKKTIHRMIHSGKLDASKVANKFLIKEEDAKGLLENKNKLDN

His6-gp1 [2] = molecular target: T1, His6-gp1; remark: listed apart in the source
His6-gp1 [3] = molecular target: T1, His6-gp1; remark: listed apart in the source

B1: SPR_wt 81-bp P2 fragment (dsDNA)
DNA 1: GTTACTACTCGAGCGAACATTTGCATTACTGGTAACTTTCGGGTAATATTGGTAGCAGAGAGGGACAAACGGGACAAATCGAGACACGATACATAC
DNA 2: GTATGTATCGTGTCTCGATTTGTCCCGTTTGTCCCTCTCTGCTACCAATATTACCCGAAAGTTACCAGTAATGCAAATGTT
DNA 3: CGCTCGAGTAGTAAC
Question: Does B1 bind (His6-gp1 [1])?
Answer: Result: binds

B2: SPR_172Δ355 (cp33.1) 81-bp fragment (dsDNA)
DNA 1: GTTACTACTCGAGCGAAAAGGAAAAGTGTGACAAGATATTCCAAGGGTGCTATAATAGGAAATGAGTAAACTACTGACTGCGCAAGAGGTTGCAGA
DNA 2: TCTGCAACCTCTTGCGCAGTCAGTAGTTTACTCATTTCCTATTATAGCACCCTTGGAATATCTTGTCACACTTTTCCTTTT
DNA 3: CGCTCGAGTAGTAAC
Question: Does B2 bind (His6-gp1 [2])?
Answer: Result: no binding

B3: SPR_252Δ262 (cp33.14) 81-bp fragment (dsDNA)
DNA 1: GTTACTACTCGAGCGTGTAATATAAAAACATTTGCATTACTGGTAATATTGGTAGCAGAGAGGGACAAACGGGACAAATCGAGACACGATACATAC
DNA 2: GTATGTATCGTGTCTCGATTTGTCCCGTTTGTCCCTCTCTGCTACCAATATTACCAGTAATGCAAATGTTTTTATATTACA
DNA 3: CGCTCGAGTAGTAAC
Question: Does B3 bind (His6-gp1 [3])?
Answer: Result: binds
